Twelve proteins from patent publication US11491212 can be followed below.

What is called KM is the substrate concentration at which the rate is half of its maximum. One may read the kcat as the maximal rate divided by the concentration of active sites. As usually defined, the kcat/KM is the second-order rate constant that governs catalysis at low substrate concentration.

Sequence of Factor X (FX), P00742 (P00742 whole entry, looked up): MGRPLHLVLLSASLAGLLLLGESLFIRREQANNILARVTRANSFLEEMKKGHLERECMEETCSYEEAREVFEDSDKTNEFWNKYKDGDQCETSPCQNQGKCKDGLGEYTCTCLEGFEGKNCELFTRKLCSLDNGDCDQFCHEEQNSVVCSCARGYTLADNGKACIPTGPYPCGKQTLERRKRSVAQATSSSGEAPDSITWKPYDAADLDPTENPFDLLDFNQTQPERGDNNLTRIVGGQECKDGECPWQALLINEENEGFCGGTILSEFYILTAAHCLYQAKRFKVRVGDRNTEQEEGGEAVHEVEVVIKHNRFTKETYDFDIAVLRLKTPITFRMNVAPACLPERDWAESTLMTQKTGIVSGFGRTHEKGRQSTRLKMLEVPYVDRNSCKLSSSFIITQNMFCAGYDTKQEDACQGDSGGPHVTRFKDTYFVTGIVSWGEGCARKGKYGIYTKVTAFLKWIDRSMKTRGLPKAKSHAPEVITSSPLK
Sequence of Factor X, P00742 (P00742 whole entry, looked up): as above

B1: FIXa-Y155F/K247N/N249S/R318Y/R338E/R403E/E410N (protein)
chain 1: not shown
chain 2: not shown
Take B1: in the data set with Factor X (FX), P00742, the “% of WT kcat/KM (against Catalyst Biosciences WT FIXa)” value is given as 405%; the KM came out at 0.0363 µM; the kcat/KM for activation of FX by FIXa in the Xase complex (FVIIIa, PC/PS vesicles, Ca2+), fluorogenic Spectrafluor FXa read-out was 1.9e+08 M⁻¹ s⁻¹. Besides, the kcat with Factor X, P00742 came to 6.2 s⁻¹.

B2: FIXa-R318Y/R338E/R403E/E410S (protein)
chain 1: not shown
chain 2: not shown
In the case of B2, in the data set with Factor X (FX), P00742, the “% of WT kcat/KM (against Catalyst Biosciences WT FIXa)” value is recorded as 458%; the KM stood at 0.0364 µM; the kcat/KM for activation of FX by FIXa in the Xase complex (FVIIIa, PC/PS vesicles, Ca2+), fluorogenic Spectrafluor FXa read-out turned out to be 2.1e+08 M⁻¹ s⁻¹. Also, in the data set with Factor X, P00742, the kcat came to 7.4 s⁻¹.

B3: FIXa-K228N/K247N/N249S/R318Y/R338E/R403E/E410N (protein)
chain 1: not shown
chain 2: not shown
In the case of B3, in the data set with Factor X (FX), P00742, the “% of WT kcat/KM (against Catalyst Biosciences WT FIXa)” value is reported as 352%; the Michaelis-Menten constant (KM) was 0.0497 µM; the kcat/KM for activation of FX by FIXa in the Xase complex (FVIIIa, PC/PS vesicles, Ca2+), fluorogenic Spectrafluor FXa read-out was found to be 1.6e+08 M⁻¹ s⁻¹. In the data set with Factor X, P00742, the catalytic constant (kcat) turned out to be 7.1 s⁻¹.

B4: FIXa-D104N/K106S/Y155F/K247N/N249S/R318Y/R338E/R403E/E410N (protein)
chain 1: not shown
chain 2: not shown
Take B4: in the data set with Factor X (FX), P00742, the “% of WT kcat/KM (against Catalyst Biosciences WT FIXa)” value is 292%; the KM came out at 0.0518 µM; the kcat/KM for activation of FX by FIXa in the Xase complex (FVIIIa, PC/PS vesicles, Ca2+), fluorogenic Spectrafluor FXa read-out turned out to be 1.3e+08 M⁻¹ s⁻¹. For the same protein, the kcat in the data set with Factor X, P00742 stood at 6.9 s⁻¹.

B5: FIXa R318Y/T343R/E410N (protein)
chain 1: not shown
chain 2: not shown
With B5, in the data set with Factor X (FX), P00742, the kcat (s^-1), activation of FX by FIXa in the Xase complex is 3.2 s⁻¹. Besides, in the data set with Factor X, P00742, the “% of WT kcat/KM” value was 135% and the kcat/KM was 6.2e+07 M⁻¹ s⁻¹.

B6: FIXa K228N/K247N/N249S/R318Y/R338E/T343R/R403E (protein)
chain 1: not shown
chain 2: not shown
Take B6: the kcat (s^-1), activation of FX by FIXa in the Xase complex with Factor X (FX), P00742 worked out at 10.9 s⁻¹. Further, in the data set with Factor X, P00742, the “% of WT kcat/KM” value amounted to 636% and the specificity constant (kcat/KM) was 2.9e+08 M⁻¹ s⁻¹.

B7: FIXa K228N/R318Y/R338E/T343R/R403E/E410N (protein)
chain 1: not shown
chain 2: not shown
For B7, the kcat (s^-1), activation of FX by FIXa in the Xase complex with Factor X (FX), P00742 is 10.5 s⁻¹. In addition, in the data set with Factor X, P00742, the “% of WT kcat/KM” value came to 593% and the kcat/KM was determined as 2.7e+08 M⁻¹ s⁻¹.

B8: FIXa K228N/K247N/N249S/R318Y/T343R/R403E/E410N (protein)
chain 1: not shown
chain 2: not shown
In the case of B8, the kcat (s^-1), activation of FX by FIXa in the Xase complex in the data set with Factor X (FX), P00742 turned out to be 8.1 s⁻¹. For the same protein, in the data set with Factor X, P00742, the “% of WT kcat/KM” value was determined as 153% and the kcat/KM is 7.1e+07 M⁻¹ s⁻¹.

B9: FIXa-Y155F/K228N/R318Y/R338E/R403E/E410N (protein)
chain 1: not shown
chain 2: not shown
Regarding B9, in the data set with Factor X (FX), P00742, the “% of WT kcat/KM (against Catalyst Biosciences WT FIXa)” value was found to be 356%; the KM is 0.0408 µM; the kcat/KM for activation of FX by FIXa in the Xase complex (FVIIIa, PC/PS vesicles, Ca2+), fluorogenic Spectrafluor FXa read-out was 1.6e+08 M⁻¹ s⁻¹. Also, the kcat with Factor X, P00742 came to 6.7 s⁻¹.

B10: FIXa-I251S/R318Y/R338E/E410N (protein)
chain 1: not shown
chain 2: not shown
As to B10, in the data set with Factor X (FX), P00742, the “% of WT kcat/KM (against Catalyst Biosciences WT FIXa)” value came to 849%; the Michaelis-Menten constant (KM) turned out to be 0.0161 µM; the kcat/KM for activation of FX by FIXa in the Xase complex (FVIIIa, PC/PS vesicles, Ca2+), fluorogenic Spectrafluor FXa read-out came to 3.9e+08 M⁻¹ s⁻¹. Moreover, the kcat in the data set with Factor X, P00742 is 6.4 s⁻¹.

B11: FIXa K228N/K247N/N249S/R318Y/R338E/T343R/E410N (protein)
chain 1: not shown
chain 2: not shown
On to B11, for which, in the data set with Factor X (FX), P00742, the kcat (s^-1), activation of FX by FIXa in the Xase complex turned out to be 4.7 s⁻¹. Moreover, in the data set with Factor X, P00742, the “% of WT kcat/KM” value stood at 278% and the kcat/KM is 1.3e+08 M⁻¹ s⁻¹.

B12: FIXa-Y155F/K247N/N249S/R318Y/R338E/E410N (protein)
chain 1: not shown
chain 2: not shown
Consider B12, for which, in the data set with Factor X (FX), P00742, the “% of WT kcat/KM (against Catalyst Biosciences WT FIXa)” value turned out to be 717%; the KM turned out to be 0.0147 µM; the kcat/KM for activation of FX by FIXa in the Xase complex (FVIIIa, PC/PS vesicles, Ca2+), fluorogenic Spectrafluor FXa read-out stood at 3.3e+08 M⁻¹ s⁻¹. For the same protein, the kcat with Factor X, P00742 was determined as 4.5 s⁻¹.
